# Measurements as given in the supplement of paper PMC5998384.
# What was measured:
# HeLa Kyoto [1] = assay: melting temperature (median over replicates), in situ; higher = more thermally stable
# HeLa Kyoto [2] = assay: solubility in G1/S (NP-40 vs SDS abundance) (log2 ratio); higher = more soluble; details: cell cycle stage: G1/S
# HeLa Kyoto [3] = assay: solubility change mitosis vs G1/S (difference of NP-40 vs SDS log2 ratios) (log2 ratio difference); higher = more soluble in mitosis
# HeLa Kyoto [4] = assay: thermal stability score vs G1/S (z-score of summed log2 fold changes over temperatures); higher = more thermally stable than in G1/S
# [5] = cell cycle stage: early G1 (4.5 h after nocodazole release)
# 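Throughout, for melting temperature (median over replicates), in situ: HeLa Kyoto cells synchronized by double thymidine or nocodazole block, proteins quantified by TMT10plex mass spectrometry, three independent biological replicates.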
# 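Throughout, for solubility change mitosis vs G1/S (difference of NP-40 vs SDS log2 ratios): synchronized HeLa Kyoto cells (double thymidine block for G1/S, nocodazole release for mitosis), protein amounts in NP-40 versus SDS lysates quantified by mass spectrometry, three biological replicates.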
# 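Throughout, for solubility in G1/S (NP-40 vs SDS abundance): HeLa Kyoto cells arrested at G1/S by double thymidine block, proteins quantified by TMT10plex mass spectrometry in mild NP-40 versus SDS extracts, three biological replicates.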
# 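Throughout, for thermal stability score vs G1/S (z-score of summed log2 fold changes over temperatures): synchronized HeLa Kyoto cells, proteins quantified by TMT10plex mass spectrometry, three biological replicates, mitosis taken 0.5 h after nocodazole release, G1/S directly after double thymidine block.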
Sequence,melting temperature (HeLa Kyoto [1]; cell cycle stage: G1/S) [°C],melting temperature (HeLa Kyoto [1]; cell cycle stage: mitosis) [°C],solubility in G1/S (log2) (HeLa Kyoto [2]),solubility change mitosis (log2) (HeLa Kyoto [3]),thermal stability score (HeLa Kyoto [4]; [5]),thermal stability score (HeLa Kyoto [4]; cell cycle stage: mitosis)
MPAERPAGSGGSEAPAMVEQLDTAVITPAMLEEEEQLEAAGLERERKMLEKARMSWDRESTEIRYRRLQHLLEKSNIYSKFLLTKMEQQQLEEQKKKEKLERKKESLKVKKGKNSIDASEEKPVMRKKRGREDESYNISEVMSKEEILSVAKKNKKENEDENSSSTNLCVEDLQKNKDSNSIIKDRLSETVRQNTKFFFDPVRKCNGQPVPFQQPKHFTGGVMRWYQVEGMEWLRMLWENGINGILADEMGLGKTVQCIATIALMIQRGVPGPFLVCGPLSTLPNWMAEFKRFTPDIPTMLYHGTQEERQKLVRNIYKRKGTLQIHPVVITSFEIAMRDRNALQHCYWKYLIVDEGHRIKNMKCRLIRELKRFNADNKLLLTGTPLQNNLSELWSLLNFLLPDVFDDLKSFESWFDITSLSETAEDIIAKEREQNVLHMLHQILTPFLLRRLKSDVALEVPPKREVVVYAPLSKKQEIFYTAIVNRTIANMFGSSEKETIELSPTGRPKRRTRKSINYSKIDDFPNELEKLISQIQPEVDRERAVVEVNIPVESEVNLKLQNIMMLLRKCCNHPYLIEYPIDPVTQEFKIDEELVTNSGKFLILDRMLPELKKRGHKVLLFSQMTSMLDILMDYCHLRDFNFSRLDGSMSYSEREKNMHSFNTDPEVFIFLVSTRAGGLGINLTAADTVIIYDSDWNPQSDLQAQDRCHRIGQTKPVVVYRLVTANTIDQKIVERAAAKRKLEKLIIHKNHFKGGQSGLNLSKNFLDPKELMELLKSRDYEREIKGSREKVISDKDLELLLDRSDLIDQMNASGPIKEKMGIFKILENSEDSSPECLF [HELLS],46.2,48.2,-0.204,0.252,1.77,3.02
MPAHLLQDDISSSYTTTTTITAPPSRVLQNGGDKLETMPLYLEDDIRPDIKDDIYDPTYKDKEGPSPKVEYVWRNIILMSLLHLGALYGITLIPTCKFYTWLWGVFYYFVSALGITAGAHRLWSHRSYKARLPLRLFLIIANTMAFQNDVYEWARDHRAHHKFSETHADPHNSRRGFFFSHVGWLLVRKHPAVKEKGSTLDLSDLEAEKLVMFQRRYYKPGLLMMCFILPTLVPWYFWGETFQNSVFVATFLRYAVVLNATWLVNSAAHLFGYRPYDKNISPRENILVSLGAVGEGFHNYHHSFPYDYSASEYRWHINFTTFFIDCMAALGLAYDRKKVSKAAILARIKRTGDGNYKSG [SCD],50.5,51.2,-0.126,-0.151,1.76,-0.899
MPAPEQASLVEEGQPQTRQEAASTGPGMEPETTATTILASVKEQELQFQRLTRELEVERQIVASQLERCRLGAESPSIASTSSTEKSFPWRSTDVPNTGVSKPRVSDAVQPNNYLIRTEPEQGTLYSPEQTSLHESEGSLGNSRSSTQMNSYSDSGYQEAGSFHNSQNVSKADNRQQHSFIGSTNNHVVRNSRAEGQTLVQPSVANRAMRRVSSVPSRAQSPSYVISTGVSPSRGSLRTSLGSGFGSPSVTDPRPLNPSAYSSTTLPAARAASPYSQRPASPTAIRRIGSVTSRQTSNPNGPTPQYQTTARVGSPLTLTDAQTRVASPSQGQVGSSSPKRSGMTAVPQHLGPSLQRTVHDMEQFGQQQYDIYERMVPPRPDSLTGLRSSYASQHSQLGQDLRSAVSPDLHITPIYEGRTYYSPVYRSPNHGTVELQGSQTALYRTGSVGIGNLQRTSSQRSTLTYQRNNYALNTTATYAEPYRPIQYRVQECNYNRLQHAVPADDGTTRSPSIDSIQKDPREFAWRDPELPEVIHMLQHQFPSVQANAAAYLQHLCFGDNKVKMEVCRLGGIKHLVDLLDHRVLEVQKNACGALRNLVFGKSTDENKIAMKNVGGIPALLRLLRKSIDAEVRELVTGVLWNLSSCDAVKMTIIRDALSTLTNTVIVPHSGWNNSSFDDDHKIKFQTSLVLRNTTGCLRNLSSAGEEARKQMRSCEGLVDSLLYVIHTCVNTSDYDSKTVENCVCTLRNLSYRLELEVPQARLLGLNELDDLLGKESPSKDSEPSCWGKKKKKKKRTPQEDQWDGVGPIPGLSKSPKGVEMLWHPSVVKPYLTLLAESSNPATLEGSAGSLQNLSAGNWKFAAYIRAAVRKEKGLPILVELLRMDNDRVVSSVATALRNMALDVRNKELIGKYAMRDLVNRLPGGNGPSVLSDETMAAICCALHEVTSKNMENAKALADSGGIEKLVNITKGRGDRSSLKVVKAAAQVLNTLWQYRDLRSIYKKDGWNQNHFITPVSTLERDRFKSHPSLSTTNQQMSPIIQSVGSTSSSPALLGIRDPRSEYDRTQPPMQYYNSQGDATHKGLYPGSSKPSPIYISSYSSPAREQNRRLQHQQLYYSQDDSNRKNFDAYRLYLQSPHSYEDPYFDDRVHFPASTDYSTQYGLKSTTNYVDFYSTKRPSYRAEQYPGSPDSWV [PKP4],50.6,–,-0.319,0.0763,-0.193,-0.925
MPATRKPMRYGHTEGHTEVCFDDSGSFIVTCGSDGDVRIWEDLDDDDPKFINVGEKAYSCALKSGKLVTAVSNNTIQVHTFPEGVPDGILTRFTTNANHVVFNGDGTKIAAGSSDFLVKIVDVMDSSQQKTFRGHDAPVLSLSFDPKDIFLASASCDGSVRVWQISDQTCAISWPLLQKCNDVINAKSICRLAWQPKSGKLLAIPVEKSVKLYRRESWSHQFDLSDNFISQTLNIVTWSPCGQYLAAGSINGLIIVWNVETKDCMERVKHEKGYAICGLAWHPTCGRISYTDAEGNLGLLENVCDPSGKTSSSKVSSRVEKDYNDLFDGDDMSNAGDFLNDNAVEIPSFSKGIINDDEDDEDLMMASGRPRQRSHILEDDENSVDISMLKTGSSLLKEEEEDGQEGSIHNLPLVTSQRPFYDGPMPTPRQKPFQSGSTPLHLTHRFMVWNSIGIIRCYNDEQDNAIDVEFHDTSIHHATHLSNTLNYTIADLSHEAILLACESTDELASKLHCLHFSSWDSSKEWIIDLPQNEDIEAICLGQGWAAAATSALLLRLFTIGGVQKEVFSLAGPVVSMAGHGEQLFIVYHRGTGFDGDQCLGVQLLELGKKKKQILHGDPLPLTRKSYLAWIGFSAEGTPCYVDSEGIVRMLNRGLGNTWTPICNTREHCKGKSDHYWVVGIHENPQQLRCIPCKGSRFPPTLPRPAVAILSFKLPYCQIATEKGQMEEQFWRSVIFHNHLDYLAKNGYEYEESTKNQATKEQQELLMKMLALSCKLEREFRCVELADLMTQNAVNLAIKYASRSRKLILAQKLSELAVEKAAELTATQVEEEEEEEDFRKKLNAGYSNTATEWSQPRFRNQVEEDAEDSGEADDEEKPEIHKPGQNSFSKSTNSSDVSAKSGAVTFSSQGRVNPFKVSASSKEPAMSMNSARSTNILDNMGKSSKKSTALSRTTNNEKSPIIKPLIPKPKPKQASAASYFQKRNSQTNKTEEVKEENLKNVLSETPAICPPQNTENQRPKTGFQMWLEENRSNILSDNPDFSDEADIIKEGMIRFRVLSTEERKVWANKAKGETASEGTEAKKRKRVVDESDETENQEEKAKENLNLSKKQKPLDFSTNQKLSAFAFKQE [WDHD1],47.9,49.6,-0.1,-0.0991,2.58,6.16
MPAVDKLLLEEALQDSPQTRSLLSVFEEDAGTLTDYTNQLLQAMQRVYGAQNEMCLATQQLSKQLLAYEKQNFALGKGDEEVISTLHYFSKVVDELNLLHTELAKQLADTMVLPIIQFREKDLTEVSTLKDLFGLASNEHDLSMAKYSRLPKKKENEKVKTEVGKEVAAARRKQHLSSLQYYCALNALQYRKQMAMMEPMIGFAHGQINFFKKGAEMFSKRMDSFLSSVADMVQSIQVELEAEAEKMRVSQQELLSVDESVYTPDSDVAAPQINRNLIQKAGYLNLRNKTGLVTTTWERLYFFTQGGNLMCQPRGAVAGGLIQDLDNCSVMAVDCEDRRYCFQITTPNGKSGIILQAESRKENEEWICAINNISRQIYLTDNPEAVAIKLNQTALQAVTPITSFGKKQESSCPSQNLKNSEMENENDKIVPKATASLPEAEELIAPGTPIQFDIVLPATEFLDQNRGSRRTNPFGETEDESFPEAEDSLLQQMFIVRFLGSMAVKTDSTTEVIYEAMRQVLAARAIHNIFRMTESHLMVTSQSLRLIDPQTQVSRANFELTSVTQFAAHQENKRLVGFVIRVPESTGEESLSTYIFESNSEGEKICYAINLGKEIIEVQKDPEALAQLMLSIPLTNDGKYVLLNDQPDDDDGNPNEHRGAESEA [APPL2],49.1,49.5,0.193,-0.0416,-0.102,0.993
MPAVSKGDGMRGLAVFISDIRNCKSKEAEIKRINKELANIRSKFKGDKALDGYSKKKYVCKLLFIFLLGHDIDFGHMEAVNLLSSNKYTEKQIGYLFISVLVNSNSELIRLINNAIKNDLASRNPTFMCLALHCIANVGSREMGEAFAADIPRILVAGDSMDSVKQSAALCLLRLYKASPDLVPMGEWTARVVHLLNDQHMGVVTAAVSLITCLCKKNPDDFKTCVSLAVSRLSRIVSSASTDLQDYTYYFVPAPWLSVKLLRLLQCYPPPEDAAVKGRLVECLETVLNKAQEPPKSKKVQHSNAKNAILFETISLIIHYDSEPNLLVRACNQLGQFLQHRETNLRYLALESMCTLASSEFSHEAVKTHIDTVINALKTERDVSVRQRAADLLYAMCDRSNAKQIVSEMLRYLETADYAIREEIVLKVAILAEKYAVDYSWYVDTILNLIRIAGDYVSEEVWYRVLQIVTNRDDVQGYAAKTVFEALQAPACHENMVKVGGYILGEFGNLIAGDPRSSPPVQFSLLHSKFHLCSVATRALLLSTYIKFINLFPETKATIQGVLRAGSQLRNADVELQQRAVEYLTLSSVASTDVLATVLEEMPPFPERESSILAKLKRKKGPGAGSALDDGRRDPSSNDINGGMEPTPSTVSTPSPSADLLGLRAAPPPAAPPASAGAGNLLVDVFDGPAAQPSLGPTPEEAFLSELEPPAPESPMALLADPAPAADPGPEDIGPPIPEADELLNKFVCKNNGVLFENQLLQIGVKSEFRQNLGRMYLFYGNKTSVQFQNFSPTVVHPGDLQTQLAVQTKRVAAQVDGGAQVQQVLNIECLRDFLTPPLLSVRFRYGGAPQALTLKLPVTINKFFQPTEMAAQDFFQRWKQLSLPQQEAQKIFKANHPMDAEVTKAKLLGFGSALLDNVDPNPENFVGAGIIQTKALQVGCLLRLEPNAQAQMYRLTLRTSKEPVSRHLCELLAQQF [AP2A1],52,51.9,-0.0177,-0.103,0.878,2.23
MPEAPPLLLAAVLLGLVLLVVLLLLLRHWGWGLCLIGWNEFILQPIHNLLMGDTKEQRILNHVLQHAEPGNAQSVLEAIDTYCEQKEWAMNVGDKKGKIVDAVIQEHQPSVLLELGAYCGYSAVRMARLLSPGARLITIEINPDCAAITQRMVDFAGVKDKVTLVVGASQDIIPQLKKKYDVDTLDMVFLDHWKDRYLPDTLLLEECGLLRKGTVLLADNVICPGAPDFLAHVRGSSCFECTHYQSFLEYREVVDGLEKAIYKGPGSEAGP [COMT],52.9,54.2,-0.0917,-0.128,3.01,5.26
